Article PMC3689661, “Plant Kinesin-Like Calmodulin Binding Protein Employs Its Regulatory Domain for Dimerization” (PLoS ONE, 2013)

B1: Arabidopsis KCBP (884–1253) (domain or fragment, UniProt Q9FHN8 884-1253, looked up)
chain: DMKGKIRVYCRIRPLNEKESSEREKQMLTTVDEFTVEHPWKDDKRKQHIYDRVFDMRASQDDIFEDTKYLVQSAVDGYNVCIFAYGQTGSGKTFTIYGHESNPGLTPRATKELFNILKRDSKRFSFSLKAYMVELYQDTLVDLLLPKSARRLKLEIKKDSKGMVFVENVTTIPISTLEELRMILERGSERRHVSGTNMNEESSRSHLILSVVIESIDLQTQSAARGKLSFVDLAGSERVKKSGSAGCQLKEAQSINKSLSALGDVIGALSSGNQHIPYRNHKLTMLMSDSLGGNAKTLMFVNVSPAESNLDETYNSLLYASRVRTIVNDPSKHISSKEMVRLKKLVAYWKEQAGKKGEEEDLVDIEEDRT
notes: motor domain with intact regulatory helix and negative coil; pET28b construct encoding a tag-free protein; source: E. coli BL21(DE3), purified (Calmodulin-Sepharose 4B)
B2: Arabidopsis KCBP (820–1225) (domain or fragment, UniProt Q9FHN8 820-1225, looked up)
chain: NSDMLLLQNNLKELEELREMKEDIDRKNEQTAAILKMQGAQLAELEILYKEEQVLRKRYYNTIEDMKGKIRVYCRIRPLNEKESSEREKQMLTTVDEFTVEHPWKDDKRKQHIYDRVFDMRASQDDIFEDTKYLVQSAVDGYNVCIFAYGQTGSGKTFTIYGHESNPGLTPRATKELFNILKRDSKRFSFSLKAYMVELYQDTLVDLLLPKSARRLKLEIKKDSKGMVFVENVTTIPISTLEELRMILERGSERRHVSGTNMNEESSRSHLILSVVIESIDLQTQSAARGKLSFVDLAGSERVKKSGSAGCQLKEAQSINKSLSALGDVIGALSSGNQHIPYRNHKLTMLMSDSLGGNAKTLMFVNVSPAESNLDETYNSLLYASRVRTIVNDPSKHISSKEMVRL
notes: with the predicted N-terminal dimerization motif, without the regulatory helix; pET32 Xa/Lic; the tag's removal is told only in the general purification methods; the motility assay held motors by an anti-His antibody; also called N-terminal dimer of KCBP without the regulatory helix; source: E. coli BL21(DE3), purified (Ni-NTA, TEV-protease); not shown: His6-Trx, N-terminal, cleaved
B3: Arabidopsis KIC (29–135) (domain or fragment, UniProt Q9ZPX9 29-135, looked up)
chain: MAEKMDVEEFVSELCKGFSLLADPERHLITAESLRRNSGILGIEGMSKEDAQGMVREGDLDGDGALNQTEFCVLMVRLSPEMMEDAETWLEKALTQELCNHNLSSMP
notes: KIC, Ca2+ ion sensor and regulator of KCBP, Arabidopsis, residues 29-135; The results speak of a deletion of the first 35 N-terminal residues; The tag's removal is told only in the general purification methods; source: E. coli BL21(DE3), purified (Ni-NTA, TEV-protease); not shown: His6-TRX, N-terminal, cleaved
B4: full length Arabidopsis KIC (1–135) (natural protein, UniProt Q9ZPX9 1-135, looked up)
chain: MEPTEKSMLLETTSTTKMETKYEDMLPVMAEKMDVEEFVSELCKGFSLLADPERHLITAESLRRNSGILGIEGMSKEDAQGMVREGDLDGDGALNQTEFCVLMVRLSPEMMEDAETWLEKALTQELCNHNLSSMP
notes: KIC, Ca2+ ion sensor and regulator of KCBP, Arabidopsis, residues 1-135; The tag's removal is told only in the general purification methods; source: E. coli BL21(DE3), purified (Ni-NTA, TEV-protease); not shown: His6, N-terminal, cleaved

Columns and labels:
[1] = molecular target: KCBP (construct not stated, in the KCBP-KIC complex) (Arabidopsis); test: SEC; Superdex-200 run of the KCBP-KIC complex that had been isolated on Ni-NTA agarose; in the presence of Ca2+
[2] = molecular target: His-tagged KIC (Arabidopsis) (UniProt Q9ZPX9); test: as above
[3] = molecular target: the molecule itself; test: SEC; Superdex 200 16/60; 50 mM Tris pH 7.5, 150 mM NaCl, 2 mM MgCl2, 0.1 mM ATP, 1 mM TCEP, and either 1 mM EGTA or 2 mM CaCl2; isolated proteins

Molecule | stoichiometry N [3] | also measured
KCBP (construct not stated, in the KCBP-KIC complex) (domain or fragment) | – | stoichiometry N [1]: 2
His-tagged KIC (from UniProt Q9ZPX9 1-135) (natural protein) | – | stoichiometry N [2]: 2
B1 | 2 | –
B2 | 2 | –
B3 | 2 | –
B4 | 2 | –
